Assay results as given in article PMC3789827, “A GDF5 Point Mutation Strikes Twice - Causing BDA1 and SYNS2” (PLoS Genetics, 2013).

T1: NOGGIN (NOG) (UniProt Q13253 28-232)
T1 construct: NOGGIN (NOG), BMP antagonist
T1 sequence (looked up): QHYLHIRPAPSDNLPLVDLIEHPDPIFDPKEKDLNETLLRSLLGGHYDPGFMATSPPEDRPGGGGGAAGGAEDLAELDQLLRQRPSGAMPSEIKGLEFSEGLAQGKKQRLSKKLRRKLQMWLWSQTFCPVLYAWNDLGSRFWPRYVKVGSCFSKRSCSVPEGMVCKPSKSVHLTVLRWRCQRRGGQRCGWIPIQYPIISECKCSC

B1: recombinant human GDF5 variant W414R (ligand, UniProt P43026 28-501, looked up)
chain: APLATRQGKRPSKNLKARCSRKALHVNFKDMGRDDWIIAPLEYEAFHCEGLCEFPLRSHLEPTNHAVIQTLMNSMDPESTPPTCCVPTRLSPISILFIDSANNVVYKQYEDMVVESCGCR
notes: Growth and Differentiation Factor 5 (GDF5), human, recombinant protein with the patient mutation p.W414R; The mutation was found in a family with SYNS2 and BDA1 (c.T1240C); also called rhGDF5^W414R; GDF5^W414R; source: recombinant, provided by Biopharm GmbH, dissolved in 10 mM HCl

Assays:
Assay in all cases: SPR; BIA2000 system (Biacore); NOG and ectodomains of BMPR1A and BMPR1B immobilised, GDF5 proteins as analyte; apparent KD; mean of two experiments with at least six analyte concentrations
Conditions in all cases: both partners purified
NOGGIN (NOG) = target: T1, NOGGIN (NOG)
[1] = target: B1
[2] = target: T2, BMP receptor type IA (BMPR1A) ectodomain (UniProt P36894 24-152)
T2 construct: BMP receptor type IA (BMPR1A), ectodomain
T2 sequence (P36894 24-152): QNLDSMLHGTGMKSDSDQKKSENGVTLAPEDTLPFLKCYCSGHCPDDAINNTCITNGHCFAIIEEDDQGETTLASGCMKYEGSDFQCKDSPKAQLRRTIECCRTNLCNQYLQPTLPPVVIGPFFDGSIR

Binder | Kd (NOGGIN (NOG)) | Kd [1] | Kd [2]
recombinant human GDF5 (Growth and Differentiation Factor 5), wild type (ligand, UniProt P43026 28-501, looked up, Growth and Differentiation Factor 5 (GDF5), human, recombinant protein; also called rhGDF5; GDF5^wt; source: recombinant, provided by Biopharm GmbH, dissolved in 10 mM HCl) APLATRQGKRPSKNLKARCSRKALHVNFKDMGWDDWIIAPLEYEAFHCEGLCEFPLRSHLEPTNHAVIQTLMNSMDPESTPPTCCVPTRLSPISILFIDSANNVVYKQYEDMVVESCGCR | 2 nM |  | 
BMP receptor type IB (BMPR1B) ectodomain (domain or fragment, UniProt O00238 14-126, looked up, BMP receptor type IB (BMPR1B), ectodomain) KKEDGESTAPTPRPKVLRCKCHHHCPEDSVNNICSTDGYCFTMIEEDDSGLPVVTSGCLGLEGSDFQCRDTPIPHQRRSIECCTERNECNKDLHPTLPPLKNRDFVDGPIHHR |  | 3.3 nM | 
B1 | 25.5 nM |  | 124 nM
